B1: Nuclear receptor-interacting protein 1 (Homo sapiens), P48552 (parent)
chain: MTHGEELGSDVHQDSIVLTYLEGLLMHQAAGGSGTAVDKKSAGHNEEDQNFNISGSAFPTCQSNGPVLNTHTYQGSGMLHLKKARLLQSSEDWNAAKRKRLSDSIMNLNVKKEALLAGMVDSVPKGKQDSTLLASLLQSFSSRLQTVALSQQIRQSLKEQGYALSHDSLKVEKDLRCYGVASSHLKTLLKKSKVKDQKPDTNLPDVTKNLIRDRFAESPHHVGQSGTKVMSEPLSCAARLQAVASMVEKRASPATSPKPSVACSQLALLLSSEAHLQQYSREHALKTQNANQAASERLAAMARLQENGQKDVGSYQLPKGMSSHLNGQARTSSSKLMASKSSATVFQNPMGIIPSSPKNAGYKNSLERNNIKQAANNSLLLHLLKSQTIPKPMNGHSHSERGSIFEESSTPTTIDEYSDNNPSFTDDSSGDESSYSNCVPIDLSCKHRTEKSESDQPVSLDNFTQSLLNTWDPKVPDVDIKEDQDTSKNSKLNSHQKVTLLQLLLGHKNEENVEKNTSPQGVHNDVSKFNTQNYARTSVIESPSTNRTTPVSTPPLLTSSKAGSPINLSQHSLVIKWNSPPYVCSTQSEKLTNTASNHSMDLTKSKDPPGEKPAQNEGAQNSATFSASKLLQNLAQCGMQSSMSVEEQRPSKQLLTGNTDKPIGMIDRLNSPLLSNKTNAVEENKAFSSQPTGPEPGLSGSEIENLLERRTVLQLLLGNPNKGKSEKKEKTPLRDESTQEHSERALSEQILMVKIKSEPCDDLQIPNTNVHLSHDAKSAPFLGMAPAVQRSAPALPVSEDFKSEPVSPQDFSFSKNGLLSRLLRQNQDSYLADDSDRSHRNNEMALLESKNLCMVPKKRKLYTEPLENPFKKMKNNIVDAANNHSAPEVLYGSLLNQEELKFSRNDLEFKYPAGHGSASESEHRSWARESKSFNVLKQLLLSENCVRDLSPHRSNSVADSKKKGHKNNVTNSKPEFSISSLNGLMYSSTQPSSCMDNRTFSYPGVVKTPVSPTFPEHLGCAGSRPESGLLNGCSMPSEKGPIKWVITDAEKNEYEKDSPRLTKTNPILYYMLQKGGNSVTSRETQDKDIWREASSAESVSQVTAKEELLPTAETKASFFNLRSPYNSHMGNNASRPHSANGEVYGLLGSVLTIKKESE
partner: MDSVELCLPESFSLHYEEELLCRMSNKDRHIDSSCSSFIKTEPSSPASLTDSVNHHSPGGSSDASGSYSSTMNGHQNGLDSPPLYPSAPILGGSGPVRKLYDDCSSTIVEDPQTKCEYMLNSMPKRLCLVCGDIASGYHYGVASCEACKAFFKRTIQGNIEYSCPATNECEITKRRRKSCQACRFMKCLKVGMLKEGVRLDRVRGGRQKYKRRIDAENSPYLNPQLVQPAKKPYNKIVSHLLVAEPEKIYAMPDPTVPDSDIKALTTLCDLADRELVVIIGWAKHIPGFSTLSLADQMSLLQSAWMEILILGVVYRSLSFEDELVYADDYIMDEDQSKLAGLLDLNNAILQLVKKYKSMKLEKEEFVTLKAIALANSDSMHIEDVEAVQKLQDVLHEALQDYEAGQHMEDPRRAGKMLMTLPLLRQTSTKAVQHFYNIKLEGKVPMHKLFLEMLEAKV
B2: Geminin (Homo sapiens), O75496 (parent)
chain: MNPSMKQKQEEIKENIKNSSVPRRTLKMIQPSASGSLVGRENELSAGLSKRKHRNDHLTSTTSSPGVIVPESSENKNLGGVTQESFDLMIKENPSSQYWKEVAEKRRKALYEALKENEKLHKEIEQKDNEIARLKKENKELAEVAEHVQYMAELIERLNGEPLDNFESLDNQEFDSEEETVEDSLVEDSEIGTCAEGTVSSSTDAKPCI
B3: Cytochrome b-245 chaperone 1 (Homo sapiens), Q9BQA9 (parent)
chain: MYLQVETRTSSRLHLKRAPGIRSWSLLVGILSIGLAAAYYSGDSLGWKLFYVTGCLFVAVQNLEDWEEAIFDKSTGKVVLKTFSLYKKLLTLFRAGHDQVVVLLHDVRDVSVEEEKVRYFGKGYMVVLRLATGFSHPLTQSAVMGHRSDVEAIAKLITSFLELHCLESPTELSQSSDSEAGDPASQS
partner: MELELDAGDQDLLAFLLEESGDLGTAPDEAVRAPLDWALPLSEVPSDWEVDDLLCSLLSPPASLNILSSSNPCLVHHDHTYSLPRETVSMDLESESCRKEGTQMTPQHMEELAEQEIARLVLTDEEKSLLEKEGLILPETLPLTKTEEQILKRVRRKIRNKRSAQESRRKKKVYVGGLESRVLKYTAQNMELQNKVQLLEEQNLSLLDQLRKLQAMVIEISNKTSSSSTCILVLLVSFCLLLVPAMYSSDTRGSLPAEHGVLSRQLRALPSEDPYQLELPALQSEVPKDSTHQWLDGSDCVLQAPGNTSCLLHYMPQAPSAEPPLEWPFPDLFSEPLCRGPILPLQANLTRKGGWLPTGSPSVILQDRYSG
B4: Keratin-associated protein 3-2 (Homo sapiens), Q9BYR7 (parent)
chain: MDCCASRSCSVPTGPATTICSSDKSCRCGVCLPSTCPHTVWLLEPICCDNCPPPCHIPQPCVPTCFLLNSCQPTPGLETLNLTTFTQPCCEPCLPRGC
B5: DNA topoisomerase 3-beta-1 (Homo sapiens), O95985 (parent)
chain: MKTVLMVAEKPSLAQSIAKILSRGSLSSHKGLNGACSVHEYTGTFAGQPVRFKMTSVCGHVMTLDFLGKYNKWDKVDPAELFSQAPTEKKEANPKLNMVKFLQVEGRGCDYIVLWLDCDKEGENICFEVLDAVLPVMNKAHGGEKTVFRARFSSITDTDICNAMACLGEPDHNEALSVDARQELDLRIGCAFTRFQTKYFQGKYGDLDSSLISFGPCQTPTLGFCVERHDKIQSFKPETYWVLQAKVNTDKDRSLLLDWDRVRVFDREIAQMFLNMTKLEKEAQVEATSRKEKAKQRPLALNTVEMLRVASSSLGMGPQHAMQTAERLYTQGYISYPRTETTHYPENFDLKGSLRQQANHPYWADTVKRLLAEGINRPRKGHDAGDHPPITPMKSATEAELGGDAWRLYEYITRHFIATVSHDCKYLQSTISFRIGPELFTCSGKTVLSPGFTEVMPWQSVPLEESLPTCQRGDAFPVGEVKMLEKQTNPPDYLTEAELITLMEKHGIGTDASIPVHINNICQRNYVTVESGRRLKPTNLGIVLVHGYYKIDAELVLPTIRSAVEKQLNLIAQGKADYRQVLGHTLDVFKRKFHYFVDSIAGMDELMEVSFSPLAATGKPLSRCGKCHRFMKYIQAKPSRLHCSHCDETYTLPQNGTIKLYKELRCPLDDFELVLWSSGSRGKSYPLCPYCYNHPPFRDMKKGMGCNECTHPSCQHSLSMLGIGQCVECESGVLVLDPTSGPKWKVACNKCNVVAHCFENAHRVRVSADTCSVCEAALLDVDFNKAKSPLPGDETQHMGCVFCDPVFQELVELKHAASCHPMHRGGPGRRQGRGRGRARRPPGKPNPRRPKDKMSALAAYFV
partner: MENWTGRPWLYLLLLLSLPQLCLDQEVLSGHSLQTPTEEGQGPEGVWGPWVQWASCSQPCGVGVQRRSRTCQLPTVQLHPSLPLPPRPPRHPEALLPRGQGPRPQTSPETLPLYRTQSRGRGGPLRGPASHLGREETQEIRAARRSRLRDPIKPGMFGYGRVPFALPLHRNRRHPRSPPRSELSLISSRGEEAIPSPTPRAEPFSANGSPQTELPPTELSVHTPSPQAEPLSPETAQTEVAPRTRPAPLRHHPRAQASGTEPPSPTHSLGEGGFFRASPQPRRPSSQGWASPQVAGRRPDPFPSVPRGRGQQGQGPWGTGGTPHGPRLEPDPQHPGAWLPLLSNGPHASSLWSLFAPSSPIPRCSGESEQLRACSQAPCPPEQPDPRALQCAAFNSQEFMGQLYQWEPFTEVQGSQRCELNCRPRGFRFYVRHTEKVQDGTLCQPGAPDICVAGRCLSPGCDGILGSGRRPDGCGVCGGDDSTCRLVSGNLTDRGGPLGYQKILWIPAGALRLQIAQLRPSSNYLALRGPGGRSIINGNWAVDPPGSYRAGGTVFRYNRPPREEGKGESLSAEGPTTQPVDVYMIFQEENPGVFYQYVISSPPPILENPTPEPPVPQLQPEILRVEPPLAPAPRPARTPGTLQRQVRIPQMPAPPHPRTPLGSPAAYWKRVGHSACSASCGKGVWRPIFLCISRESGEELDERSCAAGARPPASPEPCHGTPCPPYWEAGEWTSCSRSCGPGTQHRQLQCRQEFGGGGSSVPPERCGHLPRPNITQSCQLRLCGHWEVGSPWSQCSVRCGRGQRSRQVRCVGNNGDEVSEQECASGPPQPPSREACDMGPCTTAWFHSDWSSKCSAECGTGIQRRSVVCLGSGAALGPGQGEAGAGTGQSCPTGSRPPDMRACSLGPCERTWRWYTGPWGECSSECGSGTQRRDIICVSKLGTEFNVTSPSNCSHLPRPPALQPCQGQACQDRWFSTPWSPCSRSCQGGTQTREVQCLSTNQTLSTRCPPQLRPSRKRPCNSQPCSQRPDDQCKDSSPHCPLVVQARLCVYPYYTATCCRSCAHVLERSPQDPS
B6: DNA endonuclease RBBP8 (Homo sapiens), Q99708 (parent)
chain: MNISGSSCGSPNSADTSSDFKDLWTKLKECHDREVQGLQVKVTKLKQERILDAQRLEEFFTKNQQLREQQKVLHETIKVLEDRLRAGLCDRCAVTEEHMRKKQQEFENIRQQNLKLITELMNERNTLQEENKKLSEQLQQKIENDQQHQAAELECEEDVIPDSPITAFSFSGVNRLRRKENPHVRYIEQTHTKLEHSVCANEMRKVSKSSTHPQHNPNENEILVADTYDQSQSPMAKAHGTSSYTPDKSSFNLATVVAETLGLGVQEESETQGPMSPLGDELYHCLEGNHKKQPFEESTRNTEDSLRFSDSTSKTPPQEELPTRVSSPVFGATSSIKSGLDLNTSLSPSLLQPGKKKHLKTLPFSNTCISRLEKTRSKSEDSALFTHHSLGSEVNKIIIQSSNKQILINKNISESLGEQNRTEYGKDSNTDKHLEPLKSLGGRTSKRKKTEEESEHEVSCPQASFDKENAFPFPMDNQFSMNGDCVMDKPLDLSDRFSAIQRQEKSQGSETSKNKFRQVTLYEALKTIPKGFSSSRKASDGNCTLPKDSPGEPCSQECIILQPLNKCSPDNKPSLQIKEENAVFKIPLRPRESLETENVLDDIKSAGSHEPIKIQTRSDHGGCELASVLQLNPCRTGKIKSLQNNQDVSFENIQWSIDPGADLSQYKMDVTVIDTKDGSQSKLGGETVDMDCTLVSETVLLKMKKQEQKGEKSSNEERKMNDSLEDMFDRTTHEEYESCLADSFSQAADEEEELSTATKKLHTHGDKQDKVKQKAFVEPYFKGDERETSLQNFPHIEVVRKKEERRKLLGHTCKECEIYYADMPAEEREKKLASCSRHRFRYIPPNTPENFWEVGFPSTQTCMERGYIKEDLDPCPRPKRRQPYNAIFSPKGKEQKT

Variants of: B1
Conditions: with err3_human ESRRG

| Variant | effect of a mutation on the interaction |
| --- | --- |
| K385I | with no effect |

Variants of: B2
Conditions: with zn439_human ZNF439, Q8NDP4
zn439_human ZNF439, Q8NDP4, sequence (Q8NDP4 whole entry): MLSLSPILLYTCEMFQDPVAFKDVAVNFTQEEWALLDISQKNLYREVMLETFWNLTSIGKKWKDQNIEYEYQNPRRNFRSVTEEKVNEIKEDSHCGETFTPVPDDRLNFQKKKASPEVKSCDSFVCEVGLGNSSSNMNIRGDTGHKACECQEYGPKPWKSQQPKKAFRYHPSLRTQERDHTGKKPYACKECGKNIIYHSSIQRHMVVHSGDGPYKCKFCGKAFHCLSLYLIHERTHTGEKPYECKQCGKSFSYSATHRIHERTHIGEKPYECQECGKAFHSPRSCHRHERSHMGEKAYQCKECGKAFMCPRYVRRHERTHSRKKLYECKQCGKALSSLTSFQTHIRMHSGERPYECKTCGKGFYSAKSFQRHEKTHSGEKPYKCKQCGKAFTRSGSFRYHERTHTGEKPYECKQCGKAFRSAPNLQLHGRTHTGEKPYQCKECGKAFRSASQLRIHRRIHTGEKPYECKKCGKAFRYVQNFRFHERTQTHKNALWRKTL

| Variant | effect of a mutation on the interaction |
| --- | --- |
| N15H | with no effect |
| E167D | with no effect |

Variants of: B3
Conditions: with creb3_human CREB3, O43889

| Variant | effect of a mutation on the interaction |
| --- | --- |
| R129W | with no effect |

Variants of: B4
Conditions: with yipf3_human YIPF3, Q9GZM5
yipf3_human YIPF3, Q9GZM5, sequence (Q9GZM5 whole entry): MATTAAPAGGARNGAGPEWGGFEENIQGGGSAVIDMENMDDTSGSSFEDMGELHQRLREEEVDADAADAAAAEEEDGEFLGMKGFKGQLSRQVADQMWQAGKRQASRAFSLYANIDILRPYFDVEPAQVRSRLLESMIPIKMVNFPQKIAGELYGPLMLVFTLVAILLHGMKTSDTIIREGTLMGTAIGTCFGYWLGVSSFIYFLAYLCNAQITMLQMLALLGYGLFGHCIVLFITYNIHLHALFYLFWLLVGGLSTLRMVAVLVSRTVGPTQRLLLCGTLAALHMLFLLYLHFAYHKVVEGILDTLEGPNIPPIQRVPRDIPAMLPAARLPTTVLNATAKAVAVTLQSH

| Variant | effect of a mutation on the interaction |
| --- | --- |
| R27C | with no effect |
| S8G | with no effect |

Variants of: B4
Conditions: with hxa1_human HOXA1, P49639
hxa1_human HOXA1, P49639, sequence (P49639 whole entry): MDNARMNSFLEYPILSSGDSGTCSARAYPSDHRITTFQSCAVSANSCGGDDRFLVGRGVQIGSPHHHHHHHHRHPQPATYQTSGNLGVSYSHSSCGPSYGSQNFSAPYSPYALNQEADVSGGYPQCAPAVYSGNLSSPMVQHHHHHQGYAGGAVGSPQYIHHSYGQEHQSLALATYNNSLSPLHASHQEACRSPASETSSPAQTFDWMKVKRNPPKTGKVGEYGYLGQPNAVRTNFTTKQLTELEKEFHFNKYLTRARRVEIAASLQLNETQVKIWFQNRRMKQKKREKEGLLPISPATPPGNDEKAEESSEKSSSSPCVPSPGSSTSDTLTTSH

| Variant | effect of a mutation on the interaction |
| --- | --- |
| R27C | with no effect |
| S8G | with no effect |

Variants of: B4
Conditions: with otx1_human OTX1, P32242
otx1_human OTX1, P32242, sequence (P32242 whole entry): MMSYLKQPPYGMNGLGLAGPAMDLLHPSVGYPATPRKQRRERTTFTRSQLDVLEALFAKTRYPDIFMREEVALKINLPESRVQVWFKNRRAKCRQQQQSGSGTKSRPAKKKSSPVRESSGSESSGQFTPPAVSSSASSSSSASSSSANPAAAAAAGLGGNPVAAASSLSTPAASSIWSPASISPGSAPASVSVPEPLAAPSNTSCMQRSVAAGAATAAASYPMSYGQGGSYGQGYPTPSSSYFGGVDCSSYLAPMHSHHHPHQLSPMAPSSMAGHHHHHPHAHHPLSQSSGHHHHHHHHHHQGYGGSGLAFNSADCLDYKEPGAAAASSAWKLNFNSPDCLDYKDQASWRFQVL

| Variant | effect of a mutation on the interaction |
| --- | --- |
| R27C | with no effect |
| S8G | with no effect |

Variants of: B5
Conditions: with atl4_human ADAMTSL4, Q6UY14

| Variant | effect of a mutation on the interaction |
| --- | --- |
| R267W | disrupting interaction strength |

Variants of: B6
Conditions: with lims1_human LIMS1, P48059
lims1_human LIMS1, P48059, sequence (P48059 whole entry): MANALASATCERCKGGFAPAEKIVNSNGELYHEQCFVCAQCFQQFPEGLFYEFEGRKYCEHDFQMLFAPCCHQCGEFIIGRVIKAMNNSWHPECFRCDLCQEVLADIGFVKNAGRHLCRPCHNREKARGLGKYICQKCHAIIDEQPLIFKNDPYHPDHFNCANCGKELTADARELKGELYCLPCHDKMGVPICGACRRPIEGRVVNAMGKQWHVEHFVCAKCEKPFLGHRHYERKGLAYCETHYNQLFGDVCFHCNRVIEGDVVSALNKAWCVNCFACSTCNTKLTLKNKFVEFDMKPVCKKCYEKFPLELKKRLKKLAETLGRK

| Variant | effect of a mutation on the interaction |
| --- | --- |
| E320K | with no effect |
